Key:
purified protein [1] = substrate: NC(=O)C1=CN([C@@H]2O[C@H](COP(=O)(O)OP(=O)(O)OC[C@H]3O[C@@H](n4cnc5c(N)ncnc54)[C@H](OP(=O)(O)O)[C@@H]3O)[C@@H](O)[C@H]2O)C=CC1; assay: purified protein; type: biochemical, Scheffersomyces stipitis; details: 150 mM NaCl, 100 mM D-xylose, 100 mM Tris-HCl pH 8.0, 303 K, crystal structure of the complex at 2.0 Å, 30.0 °C, varied: cofactor
purified protein [2] = substrate: NC(=O)C1=CN([C@@H]2O[C@H](COP(=O)(O)OP(=O)(O)OC[C@H]3O[C@@H](n4cnc5c(N)ncnc54)[C@H](O)[C@@H]3O)[C@@H](O)[C@H]2O)C=CC1; assay: purified protein; type: biochemical, Scheffersomyces stipitis; details: 150 mM NaCl, 100 mM D-xylose, 100 mM Tris-HCl pH 8.0, 303 K, 30.0 °C, varied: cofactor
[3] = biological target: the molecule itself; assay: SEC; analytical, Superdex increase 200 10/300 GL, 40 mM Tris-HCl pH 8.0, 0 mM NaCl; 0.5 mL at 1 mg/mL; (in 50 and 100 mM NaCl generally separated into monomers)

B1: D-xylose reductase from Scheffersomyces stipitis (enzyme, UniProt P31867 1-318, looked up)
chain: MPSIKLNSGYDMPAVGFGCWKVDVDTCSEQIYRAIKTGYRLFDGAEDYANEKLVGAGVKKAIDEGIVKREDLFLTSKLWNNYHHPDNVEKALNRTLSDLQVDYVDLFLIHFPVTFKFVPLEEKYPPGFYCGKGDNFDYEDVPILETWKALEKLVKAGKIRSIGVSNFPGALLLDLLRGATIKPSVLQVEHHPYLQQPRLIEFAQSRGIAVTAYSSFGPQSFVELNQGRALNTSPLFENETIKAIAAKHGKSPAQVLLRWSSQRGIAIIPKSNTVPRLLENKDVNSFDLDEQDFADIAKLDINLRFNDPWDWDKIPIFV
notes: D-xylose reductase (SsXR) of Scheffersomyces stipitis; cloned NdeI/XhoI into pProEX-HTa; The vector adds a 6x-His tag with an rTEV protease cleavage site at the N-terminus; also called SsXR; XR; source: E. coli BL21(DE3)-T1R, purified (Ni-NTA, gel filtration)
B1 showed a Km (purified protein [1]) of 27.7 ± 2 µM, a kcat (purified protein [1]) of 7.63 ± 0.19 s⁻¹ and a Km (purified protein [2]) of 136 ± 17 µM. The kcat (purified protein [2]) was 2.39 ± 0.15 s⁻¹ and the “stoichiometry N” value [3] was 2.
